Data on one substance can be found in patent publication US20170183639A1.

The target in this assay is purified human recombinant Src (human) (UniProt P12931). Put plainly: in vitro competition; Src pre-incubated with peptide, GST-CD2 pull-down as competitor.

One may read the IC50 as the midpoint of a concentration-inhibition curve. Regarding “pNaSH2 (TAT-tagged CD2-derived peptide phosphorylated at Y260)”, the IC50 was 500 nM.
